We go through 3 molecules from PMC4701444 (PLoS ONE, 2016).

As usually defined, the Kd is the concentration at which binding is half-saturated.

One assay concerns the target ΔDII-PfAMA1. The assay is described as follows: Isothermal Titration Calorimetry, ΔDII-PfAMA1. Format: binding, Plasmodium falciparum. The settings on record: 25°C; ΔDII-PfAMA1 10 μM, PfRON2D3-TRX 110 μM; 20 mM Hepes pH 7.5, 150 mM NaCl; average of two experiments with standard deviation; read-out: ITC Kd. How it is done:
(§1) Purified PfAMA1, ΔDII-PfAMA1, and PfRON2D3-TRX were dialyzed against ITC buffer (20 mM Hepes pH 7.5, 150 mM NaCl) at 4°C. All ITC experiments were carried out at 25°C on a MicroCal iTC200 instrument. The sample cell contained PfAMA1 or ΔDII-PfAMA1 (10 μM), and PfRON2D3-TRX (110 μM) was added in 17 injections of 2.2 μL each. […] Data were processed using Origin software (MicroCal) and the dissociation constants (Kd) were determined using a one binding site model.
On the technique in general: ITC needs no label: the signal is the heat of the interaction.

For assay [1], the target named is PfAMA1. The settings on record: Room temp; ref [23]; read-out: SPR Kd; cited from earlier work. The text has this: Table 2 Comparison of equilibrium dissociation constants (Kd) of complexes. | column: SPRKd (nM) / Room temp
Assay [2] addresses T1, PfAMA1 (Plasmodium falciparum, UniProt Q7KQK5).
T1 construct: (residues 104–438); hexa-histidine (cleaved yes); made in house; host or cells: insect cells (modified pAcGP67B vector)
T1 sequence (Q7KQK5 104-438): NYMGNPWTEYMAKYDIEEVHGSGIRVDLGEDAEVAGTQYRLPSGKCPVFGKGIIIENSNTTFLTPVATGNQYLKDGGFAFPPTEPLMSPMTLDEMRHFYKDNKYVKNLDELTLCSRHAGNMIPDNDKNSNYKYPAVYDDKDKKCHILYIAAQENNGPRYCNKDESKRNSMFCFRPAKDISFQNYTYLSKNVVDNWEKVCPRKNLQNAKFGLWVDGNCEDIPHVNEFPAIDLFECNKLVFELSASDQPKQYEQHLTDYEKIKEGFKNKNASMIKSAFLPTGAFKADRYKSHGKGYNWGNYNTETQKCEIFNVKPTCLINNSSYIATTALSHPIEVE
The assay is described as follows: Isothermal Titration Calorimetry, PfAMA1. It is filed as binding. The conditions noted are these: ITC, 25°C; which AMA1 construct not stated. How it is done: as §1

Assay [3] concerns the target T2, F*PfRON2sp1 (39 aa) [2021-2059], fluorescein-labeled PfRON2sp1 peptide (Plasmodium falciparum, 5-FAM (5-carboxyfluorescein) on the N-terminus; disulfide cyclized at the two cysteine residues).
T2 construct: Rhoptry Neck Protein 2 (RON2) of Plasmodium falciparum, residues 2021-2059; also called labeled peptide; labeled probe; source: synthetic peptide, bought: Kinexus (purity ≥ 95%)
T2 peptide: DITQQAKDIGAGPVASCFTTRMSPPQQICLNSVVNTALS
Description: fluorescence polarisation; anisotropy kinetics at 30°C; association: 10 nM labeled probe with 50, 100, 200 nM protein; dissociation: 10 nM preformed complex challenged with 2500 or 5000 nM unlabeled PfRON2sp1; global fit to a one-intermediate model; PBS pH 7.4, at least 0.1% BSA. The conditions noted are these: both partners purified. Background: Polarisation of emitted light reports the rotation of a fluorescent probe.

The target in assay [4] is T2, F*PfRON2sp1 (39 aa) [2021-2059], …. Description: fluorescence polarisation; anisotropy kinetics at 25°C; association: 10 nM labeled probe with 50, 100, 200 nM protein; dissociation: 10 nM preformed complex challenged with 2500 or 5000 nM unlabeled PfRON2sp1; global fit to a one-intermediate model; PBS pH 7.4, at least 0.1% BSA. The settings on record: both partners purified.

For assay [5] the target is unchanged. The assay is described as follows: fluorescence polarisation; anisotropy kinetics at 20°C; association: 10 nM labeled probe with 50, 100, 200 nM protein; dissociation: 10 nM preformed complex challenged with 2500 or 5000 nM unlabeled PfRON2sp1; global fit to a one-intermediate model; PBS pH 7.4, at least 0.1% BSA. The settings on record: both partners purified.

The target is the same in assay [6]. The assay is described as follows: fluorescence polarisation; anisotropy kinetics at 25°C; association: 10 nM labeled probe with 50, 100, 200 nM protein; dissociation: 10 nM preformed complex challenged with 2500 or 5000 nM unlabeled PfRON2sp1; global fit to a one-intermediate model; PBS pH 7.4, at least 0.1% BSA. The settings on record: both partners purified.
Assay [7] shares this target. Described as above. The settings on record: both partners purified.

On to “PfRON2D3: thioredoxin fusion of PfRON2D3 (Asp2021 to Ser2059) produced in E. coli BL21 cells”, for which the Kd on ΔDII-PfAMA1 was 92.6 ± 6.4 nM; on PfAMA1 [1], 20.3 ± 6.3 nM.
As for “TRX: thioredoxin, injected as a negative control in ITC”, in the assay with PfAMA1 [2], the “binding of TRX negative control” value is reported as “no detectable binding”.

B1: PfAMA1 (DI-DII of Plasmodium falciparum Apical Membrane Antigen 1, 3D7, residues 104-438) (domain or fragment)
chain: NYMGNPWTEYMAKYDIEEVHGSGIRVDLGEDAEVAGTQYRLPSGKCPVFGKGIIIENSNTTFLTPVATGNQYLKDGGFAFPPTEPLMSPMTLDEMRHFYKDNKYVKNLDELTLCSRHAGNMIPDNDKNSNYKYPAVYDDKDKKCHILYIAAQENNGPRYCNKDESKRNSMFCFRPAKDISFQNYTYLSKNVVDNWEKVCPRKNLQNAKFGLWVDGNCEDIPHVNEFPAIDLFECNKLVFELSASDQPKQYEQHLTDYEKIKEGFKNKNASMIKSAFLPTGAFKADRYKSHGKGYNWGNYNTETQKCEIFNVKPTCLINNSSYIATTALSHPIEVE
notes: codon-optimized synthetic gene; also called native PfAMA1; PfAMA1 DI-DII construct
As to B1, the “complex half-life (calculated from the one-intermediate model)” value in assay [3] is 9.07 min; in assay [5] it was 28.8 min; in assay [6], 16 min. Moreover, the “complex half-life (experimental)” value in assay [3] is 9.23 min; in assay [5], 27.3 min; in assay [6], 15 min. Besides, the “dH (overall, summation of the transition states from the kinetic fit)” value in assay [4] is -11.6 kcal/mol. The “dH of step 1 (formation of the intermediate)” value in assay [7] was -0.67 kcal/mol.
